We go through one molecule from PMC6491619, “Development and application of a high-content virion display human GPCR array” (Nature Communications, 2019).

No end group written: not given here.

Test in all cases: virion-oscillator (plasmonic imaging, SPR read-out); VirD-GPCR virions tethered to a gold chip by a PEG linker and driven by a sinusoidal potential (5 Hz); label-free SRIF-14 perfused at several doses; first-order kinetics model
Details in all cases: one partner purified

One test deals with T1, VirD-NTSR1 (human, UniProt P30989 1-418).
T1 construct: source: recombinant HSV-1 (UL27 locus); virions from infected cells (in most cases Vero), purified by sucrose cushion; also on infected Vero cells; not shown: V5, C-terminal, kept

The next test has as its target T2, VirD-KISS1R (human, UniProt Q969F8 1-398).
T2 construct: source: recombinant HSV-1 (UL27 locus); virions from infected cells (in most cases Vero), purified by sucrose cushion; also on infected Vero cells; not shown: V5, C-terminal, kept

The next test deals with T3, VirD-GABBR2 (human, UniProt O75899 42-941).
T3 construct: source: recombinant HSV-1 (UL27 locus); virions from infected cells (in most cases Vero), purified by sucrose cushion; also on infected Vero cells; not shown: V5, C-terminal, kept
T3 sequence: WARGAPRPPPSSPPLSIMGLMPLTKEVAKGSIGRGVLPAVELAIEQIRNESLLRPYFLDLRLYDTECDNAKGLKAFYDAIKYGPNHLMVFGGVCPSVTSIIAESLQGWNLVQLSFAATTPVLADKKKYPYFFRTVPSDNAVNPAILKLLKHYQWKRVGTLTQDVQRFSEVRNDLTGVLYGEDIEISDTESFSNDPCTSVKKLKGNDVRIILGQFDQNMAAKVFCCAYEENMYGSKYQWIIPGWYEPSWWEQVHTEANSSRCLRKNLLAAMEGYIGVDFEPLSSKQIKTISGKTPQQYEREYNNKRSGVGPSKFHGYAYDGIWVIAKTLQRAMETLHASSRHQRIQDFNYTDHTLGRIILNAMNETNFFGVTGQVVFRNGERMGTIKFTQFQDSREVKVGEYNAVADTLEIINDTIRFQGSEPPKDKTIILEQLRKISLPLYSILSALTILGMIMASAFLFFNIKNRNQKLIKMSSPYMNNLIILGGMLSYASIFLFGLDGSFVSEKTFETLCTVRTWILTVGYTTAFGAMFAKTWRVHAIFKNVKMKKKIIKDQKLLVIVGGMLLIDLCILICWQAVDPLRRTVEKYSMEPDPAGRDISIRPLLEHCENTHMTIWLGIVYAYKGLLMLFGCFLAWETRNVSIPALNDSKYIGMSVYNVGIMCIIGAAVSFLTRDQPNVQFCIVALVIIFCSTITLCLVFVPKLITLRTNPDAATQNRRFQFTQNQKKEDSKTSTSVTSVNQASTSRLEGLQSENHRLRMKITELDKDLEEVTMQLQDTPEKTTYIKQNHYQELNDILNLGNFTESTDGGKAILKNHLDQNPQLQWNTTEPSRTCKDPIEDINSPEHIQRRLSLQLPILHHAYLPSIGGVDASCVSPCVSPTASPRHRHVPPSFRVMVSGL

T2 sequence (Q969F8 whole entry): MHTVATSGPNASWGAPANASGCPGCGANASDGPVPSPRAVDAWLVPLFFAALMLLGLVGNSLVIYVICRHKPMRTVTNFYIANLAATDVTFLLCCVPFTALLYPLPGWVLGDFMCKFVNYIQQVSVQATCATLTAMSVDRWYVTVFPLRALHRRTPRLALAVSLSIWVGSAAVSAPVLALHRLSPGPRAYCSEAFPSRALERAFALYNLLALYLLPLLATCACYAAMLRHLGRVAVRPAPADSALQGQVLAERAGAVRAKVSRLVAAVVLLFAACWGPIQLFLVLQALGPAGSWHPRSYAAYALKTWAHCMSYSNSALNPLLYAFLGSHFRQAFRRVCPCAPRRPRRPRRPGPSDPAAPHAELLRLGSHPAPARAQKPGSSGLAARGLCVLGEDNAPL
T1 sequence (P30989 whole entry): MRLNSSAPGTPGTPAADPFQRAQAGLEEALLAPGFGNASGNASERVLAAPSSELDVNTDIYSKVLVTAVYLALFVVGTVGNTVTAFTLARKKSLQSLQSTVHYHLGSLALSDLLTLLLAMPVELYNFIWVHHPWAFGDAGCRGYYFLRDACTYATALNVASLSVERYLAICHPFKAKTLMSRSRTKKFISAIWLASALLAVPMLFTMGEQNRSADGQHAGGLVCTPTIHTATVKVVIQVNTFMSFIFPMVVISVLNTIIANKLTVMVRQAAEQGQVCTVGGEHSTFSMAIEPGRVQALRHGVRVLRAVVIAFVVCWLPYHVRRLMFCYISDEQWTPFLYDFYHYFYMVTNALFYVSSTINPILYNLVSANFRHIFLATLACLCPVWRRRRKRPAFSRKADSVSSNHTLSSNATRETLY

B1: somatostatin-14 (SRIF-14), unlabeled (peptide)
peptide: AGCKNFFWKTFTSC
modifications: not fully specified (bridges); ends and bridges not checked
notes: somatostatin-14 (SRIF-14), cut product of the somatostatin precursor; also called cold SRIF-14; SIRF-14; source: bought: AnaSpec (peptide)
The Kd is the free concentration of one partner at which half of the binding sites on the other are occupied at equilibrium, for simple one-to-one binding. In the case of B1, the Kd with VirD-NTSR1 is 2.6 µM; with VirD-KISS1R, 25 µM; with VirD-GABBR2 it was 0.4 µM.
